Experimental findings from PMC5737868 are described below.

What is called Kd is the free concentration of one partner at which half of the binding sites on the other are occupied at equilibrium, for simple one-to-one binding. Read a low Kd as higher affinity.

One data set has as its target FUS-NLUC-FLAG (UniProt P35637 1-526, P525L). Briefly: NanoBRET. In general terms: BRET reads energy transfer from a luciferase to a nearby fluorophore.
Data set [1] deals with FUS-P525L-NLUC-HA / NLUC-FUS-P525L-HA (full-length) (UniProt P35637 1-526, P525L). Nature of the data set: NanoBRET.

Turning to CUGCUAGCCUCUGGAUUUGA (ssRNA) [PO-RNA JB-39], in the data set with FUS-NLUC-FLAG, the Kd stood at 143 ± 38.2 nM.

In data set [1], CTGCTAGCCTCTGGATTTGA (XNA, full phosphorothioate, 2'-fluoro-modified gapmer (pattern not in the material)) [2'-F PS-ASO ION-766637] showed a Kd of 2.2 ± 0.2 nM.
